In patent US20030008329A1 (Takeda / Millennium, published 2003) one finds IC50, Ki and Kd data, which are given here for 6 molecules.

Where no end group is shown, it is not given here.

Assay [1] has as its target mouse-derived galanin receptor protein (mouse pancreatic β-cell line MIN6-derived, encoded by pMGR20) (mouse) (UniProt P56479). In words: competition with [125I] porcine galanin on MIN6 cell membrane fractions, 25 C 75 min, filtration.
For assay [2] the target is unchanged. As to the kind of experiment: competition with 100 pM porcine [125I] galanin on membranes of CHO cells expressing the mouse galanin receptor, 25 C 75 min.
For assay [3] the target is unchanged. In words: competition with porcine [125I] galanin on membranes of CHO cells expressing the mouse galanin receptor.
The target in assay [4] is T1, mouse-derived galanin receptor protein (mouse pancreatic β-cell line MIN6-derived, encoded by pMGR20) (mouse, UniProt P56479 1-348).
T1 construct: also called mouse galanin receptor; MIN6-derived galanin receptor protein
T1 sequence: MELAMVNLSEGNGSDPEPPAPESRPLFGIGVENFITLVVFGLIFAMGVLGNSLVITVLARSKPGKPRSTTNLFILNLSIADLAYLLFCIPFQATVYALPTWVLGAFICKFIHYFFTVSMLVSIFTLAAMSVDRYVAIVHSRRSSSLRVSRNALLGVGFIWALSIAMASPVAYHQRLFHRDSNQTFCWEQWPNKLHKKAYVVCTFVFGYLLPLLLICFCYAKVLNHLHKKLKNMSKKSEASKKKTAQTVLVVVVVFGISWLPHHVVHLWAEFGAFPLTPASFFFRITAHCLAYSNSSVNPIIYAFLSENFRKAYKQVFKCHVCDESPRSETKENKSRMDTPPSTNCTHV
In words: saturation binding and Scatchard plot analysis on membrane fractions of CHO cells transformed with mouse galanin receptor cDNA, 25 C 75 min, filtration.
Description: (§1) The results shown are from one representative experiment performed in triplicate assays.
as §1

Assay [5] addresses T1, mouse-derived galanin receptor protein …. In words: competition with porcine [125I] galanin on membranes of CHO cells expressing the mouse galanin receptor. Here is the method:
(§2) Membrane fractions (1 μg of protein) were incubated with the ligands for 75 min at 25° C. […] Each symbol represents the mean value±S.E.M. of the triplicate assays.

The target is the same in assay [6]. As to the kind of experiment: competition with [125I] porcine galanin on MIN6 cell membrane fractions, 25 C 75 min, filtration. How it is done:
The MIN6 cell membrane fractions prepared by the method of the above-mentioned (1) were diluted with a buffer for the receptor binding experiment (containing 20 mM of Tris, 1 mM of EDTA, 0.03% of NaN , 0.1% of BSA, 0.05% of CHAPS, 0.5 mM of PMSF, 10 μg/ml of pepstatin, 20 μg/ml of leupeptin and 4 μg/ml of E-64; pH: 7.4) to make the membrane protein concentration 50 μg/ml.
The mixture was allowed to stand in a water bath of 25° C. for 75 minutes to promote the receptor binding reaction. Thereafter, 1.5 ml of an ice-cooled buffer for the binding experiment was added to the reaction solution for quenching the binding reaction and filtered with a glass fiber filter (GF/F, manufactured by Whatman) immediately whereupon the membrane fractions were collected on the filter paper. Then the filter paper was washed with 1.5 ml of the same buffer and the amount of the radioisotope in the filter paper was determined by a gamma-ray detector.

Assay [7] shares this target. In words: competition with 100 pM porcine [125I] galanin on membranes of CHO cells expressing the mouse galanin receptor, 25 C 75 min. Here is the method: as §2

A word on the IC50: it is the concentration at which inhibition is half-maximal. Low values mean greater potency, high ones weaker potency. For “galanin antagonist (galantide) (peptide)”, the IC50 in assay [1] was determined as 0.69 nM.

The term Ki denotes a dissociation constant, usually derived from enzyme kinetics or from competition with a known ligand. A higher Ki goes with a looser hold on the target. “M15 (galanin receptor antagonist) (peptide)”: the IC50 in assay [2] came out at 0.83 nM. The same molecule returned a Ki in assay [3] of 0.23 nM.

B1: porcine [125I] galanin (peptide, UniProt P07480 33-61, looked up)
peptide: GWTLNSAGYLLGPHAIDNHRSFHDKYGLA
modifications: ends and bridges not checked; also: [125I] radioisotope label (residue not given here)
notes: mature; also called labeled galanin
In general, Kd refers to the constant that tells how readily two partners part at equilibrium. Read a high Kd as lower affinity. In turn, B1 registered a Kd in assay [4] of 0.045 nM.

B2: porcine galanin (unlabeled) (peptide, UniProt P07480 33-61, looked up)
peptide: GWTLNSAGYLLGPHAIDNHRSFHDKYGLA
modifications: ends and bridges not checked
notes: mature; The assay used the 29-residue peptide; also called standard porcine galanin; galanin (porcine)
Turning to B2, the affinity in assay [5], expressed as Ki, was 0.072 nM. Besides, in assay [6], the IC50 amounted to 0.12 nM.

B3: galanin (1-16) partial peptide (peptide)
peptide: GWTLNSAGYLLGPHAI
notes: The range 1-16 counts on the mature peptide, not on the precursor
As for B3, the IC50 is 3.6 nM in assay [7] and 3.3 nM in assay [6]. In assay [5], this molecule registered a Ki of 1 nM.

B4: human galanin (unlabeled) (peptide, UniProt P22466 33-62, looked up)
peptide: GWTLNSAGYLLGPHAVGNHRSFSDKNGLTS
notes: mature; The assay used the galanin peptide
In the case of B4, the IC50 in assay [7] turned out to be 0.43 nM. The molecule further returned a Ki in assay [5] of 0.12 nM.
